{
  "source": "patent US20030180282A1",
  "about": "“Method of treatment of thrombotic events” (priority 2002, published 2003)",
  "key": {"platelets [1]": {"system": "platelets", "test": "in vitro comparison of TNK versus t-PA on platelet activation and surface receptor expression (15 parameters)", "assay_type": "cell-based, human", "settings": "TNK 12 μg/mL, t-PA 4 μg/mL, 30 minutes", "method": "(§1) Blood samples for the in vitro study were obtained from 9 healthy volunteers. None of the subjects smoked or had hypertension, diabetes, or an abnormal hematocrit. None had received aspirin or any other antiplatelet drugs. All subjects underwent blood sampling after at least 30 minutes of rest and 2 or more hours of fasting. Blood was drawn from an antecubital vein between 8 am and 10 am in order to avoid any diurnal influence. A 21-gauge butterfly needle was used to draw blood into a tube containing 3.8% sodium citrate (1:9 volume); the first 1.5 mL of free running blood was discarded. One tube was kept as an internal control. A second tube was incubated with tenecteplase (TNK) for 30 minutes at room temperature in order to achieve a final concentration of 12 μg/mL. […]\nFor the platelet aggregation (PA) studies, platelet-rich plasma (PRP) was first isolated. […] Platelet counts were determined for each PRP sample with a Coulter Counter ZM (Coulter Co., Hialeah, Fla.). […] Platelet aggregation was determined by using a 4 channel Chrono-log Lumi-Aggregometer (model 560-Ca) and expressed as the maximum percentage of light transmittance change (% max) from the baseline at the end of the recording time. […] Platelet aggregability curves were recorded for 6 minutes and analyzed according to internationally established standards (see, e.g., Ruggeri, Z. M. (1994) Semin. Hemat. 31:229-239). […]"}, "platelets [2]": {"system": "platelets", "test": "in vitro whole blood aggregometry (impedance)", "assay_type": "cell-based, human", "settings": "5 μg/mL collagen; TNK 12 μg/mL, t-PA 4 μg/mL", "method": "as §1\nWhole blood samples were prepared as follows: whole blood citrate mixture was diluted 1:1 with 0.5 mL Tyrode's buffer solution, then swirled gently. […] Platelet aggregability was expressed as the change in electrical impedance and is expressed in ohms. Aggregation curves were recorded for 6 minutes and analyzed by use of Aggrolink® software (Chrono-log Corporation).\n(§2) For all comparisons, statistical analyses were done by using repeated measures ANOVA. […] Normally distributed data were expressed as mean±SE, and skewed data as median (range). […]"}, "platelets [3]": {"system": "platelets", "test": "PFA-100 platelet function analyzer, closure time", "assay_type": "cell-based, human", "settings": "TNK 12 μg/mL, t-PA 4 μg/mL", "method": "(§3) Blood samples for the in vitro study were obtained from 9 healthy volunteers. None of the subjects smoked or had hypertension, diabetes, or an abnormal hematocrit. None had received aspirin or any other antiplatelet drugs. All subjects underwent blood sampling after at least 30 minutes of rest and 2 or more hours of fasting. Blood was drawn from an antecubital vein between 8 am and 10 am in order to avoid any diurnal influence. A 21-gauge butterfly needle was used to draw blood into a tube containing 3.8% sodium citrate (1:9 volume); the first 1.5 mL of free running blood was discarded. One tube was kept as an internal control. A second tube was incubated with tenecteplase (TNK) for 30 minutes at room temperature in order to achieve a final concentration of 12 μg/mL. The third tube was similarly incubated with alteplase (t-PA) to achieve a concentration of 4 μg/mL. The concentrations of TNK and t-PA that were chosen approximated conventional plasma levels observed in patients receiving TNK and t-PA bolus (30 mg, and 15 mg, respectively; data on file, Genentech, Inc., South San Francisco, Calif.). Fresh solutions of TNK and t-PA were prepared in Dulbecco's phosphate buffered saline (DPBS) ex tempore on the morning of the platelet studies.\nThe PFA-100™ (Dade Behring, Deerfield, Ill.) is a high shear-inducing platelet function analyzer that simulates primary hemostasis after injury to a small vessel under flow conditions (see, e.g. Kundu, S. K. et al. (1996) Clin. Appl. Thromb. Hemost. 2:241-249). The device provides a constant negative pressure that aspirates a whole blood-citrate mixture, which comes into contact with a collagen-coated membrane and then passes through an aperture. The time required to obtain occlusion of the aperture is digitally recorded and is a measure of shear-induced platelet aggregation.\nas §2"}, "platelets [4]": {"system": "platelets", "test": "rapid platelet-function assay (Ultegra)", "assay_type": "cell-based, human", "settings": "TNK 12 μg/mL, t-PA 4 μg/mL", "method": "as §3\nWith rapid platelet-function assay (RPFA (Ultegra®); Accumetrics, Inc., San Diego, Calif.), polystyrene beads coated with fibrinogen are placed in a cartridge along with a peptide that activates the thrombin receptor. A whole blood citrate mixture is added to the cartridge, and agglutination between platelets and coated beads is recorded. The data mirror turbidometric platelet aggregation and reflect the degree of platelet glycoprotein IIb/IIIa blockade.\nFor all comparisons, statistical analyses were done by using repeated measures ANOVA. Post hoc comparison was performed by use of the Bonferroni t-test to identify specific differences in platelet aggregation and receptor expression between patients treated with TNK and t-PA, and controls. […] Normally distributed data were expressed as mean±SE, and skewed data as median (range). […]"}, "platelets [5]": {"system": "platelets", "test": "in vitro whole blood flow cytometry of platelet receptors and platelet-monocyte aggregates", "assay_type": "cell-based, human", "settings": "TNK 12 μg/mL, t-PA 4 μg/mL", "method": "as §3\nThe surface expression of platelet receptors was determined by flow cytometry by using the following monoclonal antibodies: CD 41 (glycoprotein [GP] IIb/IIIa, α IIbβ3) CD 42b (GP Ib), CD 62p (P-selectin), CD 51/CD 61 (αvβ3, or vitronectin receptor), CD 31 (platelet endothelial cell adhesion molecule [PECAM]-1), CD 107a (LAMP-1), CD 107b (LAMP-2), CD 63 (LIMP or LAMP-3), and CD 151 (PETA-3) (PharMingen, San Diego, Calif.). Platelet-leukocyte interactions were assessed by using dual antibodies for a pan-platelet marker (CD 41), together with CD 14, a monocyte/macrophage marker. The blood-citrate mixture (50 μl) was diluted with 450 μl Tris buffered saline (TBS) (10 mmol/L Tris, 0.15 mol/L sodium chloride) and mixed by gently inverting an Eppendorf tube 2 times. The corresponding antibody was then added (5 μl) and incubated at 4° C. for 30 minutes. After incubation, 400 μl of 2% buffered paraformaldehyde was added for fixation. The samples were analyzed on a Becton Dickinson FACScan flow cytometer set up to measure fluorescent light scatter, as previously described. All parameters were collected by using 4-decade logarithmic amplification. The data were collected in list mode files and then analyzed. P-selectin was expressed as percent positive cells. Other antigens were expressed as log mean fluorescence intensity.\n(§4) For all comparisons, statistical analyses were done by using repeated measures ANOVA. Post hoc comparison was performed by use of the Bonferroni t-test to identify specific differences in platelet aggregation and receptor expression between patients treated with TNK and t-PA, and controls. The Mann-Whitney U test was used to analyze non-parametric data. Normally distributed data were expressed as mean±SE, and skewed data as median (range). Probability values of P<0.05 were regarded as statistically significant. Linear regression analysis was applied to normally distributed data for all study participants by using the Statview 4.1 program for analysis."}, "[6]": {"system": "platelet-derived biomarkers", "test": "ASSENT-2 platelet substudy: ELISA of platelet-derived biomarkers in plasma of AMI patients", "assay_type": "in vivo, human", "method": "Forty-one patients with ST-segment elevation AMI enrolled in a single ASSENT-2 site (Rashid Hospital, Dubai, United Arab Emirates) were studied. The inclusion and exclusion criteria of ASSENT-2 have been previously reported ([no authors listed] (1999) Lancet 354:716-722). Briefly, patients included in the trial were between 18 and 70 years of age and were seen within 6 hours of symptom onset with >30 minutes of continuous symptoms. […] After informed consent was obtained, 7 serum samples were drawn. Samples were collected at baseline and at 30-minute intervals during a 180-minute period. Within 15 minutes of sample acquisition, plasma was separated by centrifugation at 800 g for 10 minutes, aspirated, placed in vials, and snapped frozen at −20° C.\nEnzyme-linked immunosorbent assay (ELISA) was used according to standard sandwich techniques for CD 31 (sPECAM-1), sVACAM-1, sP-selectin, (R&D Systems Inc. Minneapolis, Minn.), beta-thromboglobulin, Asserachrom® (Diagnostica Stago Inc., Parsippany, N.J.), platelet factor 4 Asserachrom®, thromboxane, and prostacyclin (Cayman Chemical Co., MI). Each sample was measured in duplicate, and the overall intra-assay coefficient of variation was between 3.1%±0.4% and 7.6%±1.0%, with a plasma recovery rate between 89.7% and 98.7%.\nas §4\nIn the ASSENT-2 Platelet Substudy, 21 of the 41 patients enrolled received TNK (30-50 mg), while the remaining 20 received t-PA (40-85 mg). There were no substantial differences in baseline characteristics for the AMI patients."}},
  "data": [
    {"molecule": "TNK: form of tissue plasminogen activator, thrombolytic agent (Genentech) (protein, UniProt P00750 36-562, looked up, variant T103N N117Q K296A H297A R298A R299A) Tissue-type plasminogen …: SYQVICRDEKTQMIYQQHQSWLRPVLRSNRVEYCWCNSGRAQCHSVPVKSCSEPRCFNGGTCQQALYFSDFVCQCPEGFAGKCCEIDTRATCYEDQGISYRGNWSTAESGAECTNWQSSALAQKPYSGRRPDAIRLGLGNHNYCRNPDRDSKPWCYVFKAGKYSSEFCSTPACSEGNSDCYFGNGSAYRGTHSLTESGASCLPWNSMILIGKVYTAQNPSAQALGLGKHNYCRNPDGDAKPWCHVLKNRRLTWEYCDVPSCSTCGLRQYSQPQFRIKGGLFADIASHPWQAAIFAAAAASPGERFLCGGILISSCWILSAAHCFQERFPPHHLTVILGRTYRVVPGEEEQKFEVEKYIVHKEFDDDTYDNDIALLQLKSDSSRCAQESSVVRTVCLPPADLQLPDWTECELSGYGKHEALSPFYSERLKEAHVRLYPSSRCTSQHLLNRTVTDNMLCAGDTRSGGPQANLHDACQGDSGGPLVCLNDGRMTLVGIISWGLGCGQKDVPGVYTKVTNYLDWIRDNMRP", "values": [
      {"measurement": "platelet function, 10 of 15 parameters, compared with baseline DPBS values", "setting": "platelets [1]", "value": "diminished platelet function"},
      {"measurement": "whole blood aggregometry, TNK versus t-PA samples", "setting": "platelets [2]", "value": "statistically significant decrease"},
      {"measurement": "closure time (PFA-100) compared with DPBS", "setting": "platelets [3]", "value": "prolongation"},
      {"measurement": "closure time with the ADP/collagen cartridge (PFA-100), TNK versus t-PA samples", "setting": "platelets [3]", "value": "extension"},
      {"measurement": "platelet activation units (Ultegra) compared with DPBS", "setting": "platelets [4]", "value": "reduction"},
      {"measurement": "platelet activation with the Ultegra analyzer, TNK versus t-PA samples", "setting": "platelets [4]", "value": "statistically significant decrease"},
      {"measurement": "CD 151 expression, TNK versus t-PA samples", "setting": "platelets [5]", "value": "Significant reduction"},
      {"measurement": "PECAM-1 expression, TNK versus t-PA samples", "setting": "platelets [5]", "value": "Significant reduction"},
      {"measurement": "expression of PECAM-1 compared with saline-treated samples", "setting": "platelets [5]", "value": "trend toward diminished expression"},
      {"measurement": "expression of glycoprotein IIb/IIIa compared with saline-treated samples", "setting": "platelets [5]", "value": "reduced expression"},
      {"measurement": "formation of platelet-monocyte aggregates compared with saline-treated samples", "setting": "platelets [5]", "value": "trend toward diminished"},
      {"measurement": "formation of platelet-monocyte aggregates, TNK versus t-PA", "setting": "platelets [5]", "value": "lower"},
      {"measurement": "glycoprotein IIb/IIIa expression, TNK versus t-PA samples", "setting": "platelets [5]", "value": "Significant reduction"},
      {"measurement": "vitronectin receptor expression, TNK versus t-PA samples", "setting": "platelets [5]", "value": "Significant reduction"},
      {"measurement": "P-selectin plasma concentrations", "setting": "[6]; 30-60 minutes", "value": "immediate increase"},
      {"measurement": "P-selectin plasma concentrations", "setting": "[6]; 120-150 minutes", "value": "significant decrease"},
      {"measurement": "P-selectin plasma concentrations", "setting": "[6]; 180 minutes", "value": "rebound"},
      {"measurement": "plasma levels of PECAM-1", "setting": "[6]; AMI patients after thrombolysis", "value": "significantly inhibited"},
      {"measurement": "release of substances from platelets (plasma biomarkers)", "setting": "[6]; TNK 30-50 mg, t-PA 40-85 mg, 180-minute period", "value": "decreased release"},
      {"measurement": "vascular cell adhesion molecule-1 (VCAM-1) release", "setting": "[6]; after 90 minutes", "value": "inhibited significantly"},
      {"measurement": "inhibition of thromboxane formation, TNK versus t-PA", "setting": "[6]; human, in vivo", "value": "significantly stronger"},
      {"measurement": "pattern of prostacyclin release, between the agents", "setting": "[6]; human, in vivo", "value": "very similar"},
      {"measurement": "plasma concentrations of prostacyclin", "setting": "[6]; human, in vivo", "value": "significant and early decrease"},
      {"measurement": "plasma concentrations of thromboxane", "setting": "[6]; human, in vivo", "value": "significant and early decrease"},
      {"measurement": "prevention of platelet activation, TNK versus t-PA group", "setting": "[6]; human, in vivo", "value": "stronger prevention of platelet activation"}
    ]}
  ]
}
